In patent US20240382677A1:
Substitutions are numbered along the chain they refer to.

B1: H2aM7796N (antibody, mouse IgG2a, V domains shown)
VH: QVQLVESGGGVVQPGRSLRLSCAASGFTFSSYGMHWVRQAPGKGLEWVAIIWSDGDSEYNLDSVKGRFTISRDNSKNTLYLQMNSLRVEDSAVYYCARDRDLEDIWGQGTMVTVSS
VL: DIQMTQSPSSLSASVGDRVTITCRASQGIRNDLGWYQQKPGKAPKRLIYAASNLQSGVPSRFSGSGSGTEFTLTISSLQPEDFATYYCLQHNSYPLTFGGGTKVEIK
B2: H2aM7798N (antibody, mouse IgG2a, V domains shown)
VH: EVQLLESGGVLVQPGGSLRLSCAASGFTFSNFGMTWVRQAPGKGLEWVSGISGGGRDTYFADSVKGRFTISRDNSKNTLYLQMNSLKGEDTAVYYCVKWGNIYFDYWGQGTLVTVSS
VL: DIQMTQSPSSLSASVGDSITITCRASLSINTFLNWYQQKPGKAPNLLIYAASSLHGGVPSRFSGSGSGTDFTLTIRTLQPEDFATYYCQQSSNTPFTFGPGTVVDFR
B3: H2aM7791N (antibody, mouse IgG2a, V domains shown)
VH: QMQLQQWGAGLLKPSETLSLTCVVYGGSLNGYYWSWIRQSPGKGLEWIGEIDHSGSTNYNPSLKNRVTMSVDTSKIQFSLKLTSVTVADTAVYYCAREGLLPFDYWGQGTLVTVSS
VL: EIVLTQSPGTLSLSPGERVTLSCRASQSVYSNYLAWYQQNPGQAPRLLIYAASNRATGIPDRFSGSGSGTDFTLTISRLEPEDFAVYYCHQYATSPWTFGQGTKVEIK
B4: H1M7789N (antibody, mouse IgG1, V domains shown)
VH: EVQLLESGGGLVQPGGSLRLSCSASGFTFSSYTMNWVRQAPGKGLEWVSGISDTGGNTYYTDSVKGRFTVSRDNSKNTLSLQMNSLRAEDTAVYYCAKDQGGSYPYYFHYWGQGSLVTVSS
VL: DIQMTQSPSSLSASVGDRVTITCRASQSISSYLIWYQQKPGTAPKFLIYAASSLQSGVPSRFSGCGSGTDFTLTISSLQPEDFATYYCQQSYSTPPITFGQGTRLEIK
B5: H2aM7780N (antibody, mouse IgG2a, V domains shown)
VH: QVQLVESGGGVVQSGRSLRLSCAASGFTFSSYGMHWVRQAPGKGLEWVAVIWYDGSNIYYSDSVKGRFTISRANSKNTLYLQMNSLRAEDTAVYYCARPGHWNYFFEYWGQGTLVTVSS
VL: B4 VL with S30N, S31N, I34N, T42K, F46L, A50T, C65S, I97L, R104Q
B6: H2aM7795N (antibody, mouse IgG2a, V domains shown)
VH: EVQVVESGGGLVEPGRSLRLSCKASGFTFDDYAMHWVRQTPGKALEWVSGINWSGNNIGYADSVKGRFTISKDDAKNSLYLQMNSLRPEDTALYYCTKDISITGTLDAFDVWGQGTMVTVSS
VL: DIQMTQSPISVSASVGDRVTITCRASQGISNWLAWYQQKPGIAPKLLIYSASSLQSGVPSRFRGSGSGTDFTLTIGSLQPEDFATYYCQQAHSFPLTFGGGTKVEIK
B7: H4H7798N (antibody, human IgG4 S228P, kappa, V domains shown)
VH: B2 VH
VL: DIQMTQSPSSLSASVGDSITITCRASLSINTFLNWYQQKPGKAPNLLIYAASSLHGGVPSRFSGSGSGTDFTLTIRTLQPEDFATYYCQQSSNTPFTFGPGTVVDFRR
B8: H4H7795N2 (antibody, human IgG4 S228P, kappa, V domains shown)
VH: B6 VH with N52S
VL: DIQMTQSPISVSASVGDRVTITCRASQGISNWLAWYQQKPGIAPKLLIYSASSLQSGVPSRFRGSGSGTDFTLTIGSLQPEDFATYYCQQAHSFPLTFGGGTKVEIKR

Target: full length human PD-1 on HEK293/hPD-1 cells (human)
Assay: FACS, 100 nM antibody

ratio of HEK293/hPD-1 to HEK293 parental cells [fold]	Binder
168	B1
78.1	B2
18	B3
92.3	B4
73.8	B5
2.8	B6

Target: full length human PD-1 on HEK293/hPD-1 cells (human)
Assay: FACS dose response, HEK293/hPD-1 cells

EC50 [nM]	Max Geom. Mean MFI @ 100 nM [MFI]	Binder
4.81	14100	B1
0.0698	20900	B2
0.509	20300	B7
1.69	18400	B5

Target: full length human PD-1 on HEK293/hPD-1 cells (human)
Assay: FACS, 100 nM antibody, HEK293/hPD-1 cells

MFI [MFI]	Binder
49800	B1
23400	B2
4950	B3
24200	B4
23700	B5
817	B6

Target: full length human PD-1 on HEK293/hPD-1 cells (human)
Assay: FACS dose response, HEK293/hPD-1 cells; EC50 Inconclusive

Max Geom. Mean MFI @ 100 nM [MFI]	Binder
35600	B4
15200	B8

Target: full length human PD-1 on HEK293/hPD-1 cells (human)
Assay: FACS dose response, HEK293/hPD-1 cells; No EC50 determined

Max Geom. Mean MFI @ 100 nM [MFI]	Binder
624	B1
1400	B3
